Test results published in article PMC5955610 (Structure (London, England : 1993), 2010).

Target: T1, RMI1C (C-terminal domain of human RMI1, residues 475-625) (human, UniProt Q9H9A7 475-625, Se-Met substituted in the crystals)
T1 sequence (looked up): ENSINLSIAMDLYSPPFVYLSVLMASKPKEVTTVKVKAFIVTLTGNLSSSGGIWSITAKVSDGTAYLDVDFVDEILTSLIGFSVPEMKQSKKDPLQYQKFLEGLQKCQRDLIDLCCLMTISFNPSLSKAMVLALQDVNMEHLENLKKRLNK
Assay: crystal structure + SEC

B1: RMI2 (residues 6-147) (domain or fragment, human, UniProt Q96E14 6-147, looked up)
chain: DSFSGGPAGVRLPRSPPLKVLAEQLRRDAEGGPGAWRLSRAAAGRGPLDLAAVWMQGRVVMADRGEARLRDPSGDFSVRGLERVPRGRPCLVPGKYVMVMGVVQACSPEPCLQAVKMTDLSDNPIHESMWELEVEDLHRNIP
modifications: Se-Met substituted in the crystals
For B1, the “stoichiometry N” value was 1 RMI1C:RMI2.
